According to PMC9311411, “A Morphing [4Fe‐3S‐nO]‐Cluster within a Carbon Monoxide Dehydrogenase Scaffold” (Angewandte Chemie (International Ed. in English), 2022):

Substrate: NO
Test: reoxidation of reduced methyl viologen
Type: biochemical, Carboxydothermus hydrogenoformans
Conditions: 0-100 mM NH2OH; reduced methyl viologen as artificial electron donor; two-electron reduction to ammonia and water
Source text: reoxidation of reduced methyl viologen on CooS‐V Ch | hyperbolic dependency on the NH2OH concentration (Figure S2‐C)

B1: CooS‐V Ch (Carboxydothermus hydrogenoformans Z-2901) (protein)
chain: MATKTSIHPSVNELYQRLAEDQLSNCFDRFDPQEKIRCNYCELGVSCQLCSNGPCRINEKVGATLGVCGINADGMAMRYMLLRNVMGTSTYTYHAYEAYKTLKMTALGNTPFTITDKDKLYQMAKDLELNTEGKPEDVAVRLSDFLIWELYRDYDEPGKMIEVYAPLKRKEVWRKLGIYPAGPLHELKDAAASCLTNVDGDYVSLATKGLRLGLSCIYGAQIGLELVQDILFGTGMPHEMDVDLGIFDADYINIVFNGHEPFVGVALILAAKEAVNQDKAKAAGAKSLRIYGSIESGQEVVQRFQKDEVFRGLTGNWLTIEPMLATGAVDVLAMDMNCSPPNLGPLAEKYGATLVSVSRLVRFPGIHHFLDYKPSEVREIAQKIIDIAVDSFKNKRHGKITPKIPANIQKAITGFTPEAILKALGGSINPLIEVIKAGKIKGAVGLINCTTLKNGPQDYVTVNLAKELIKRDILILSGGCGNHALEVAGLCNLDAINLAGPGLSEVCRNLNIPPVLSFGTCTDTGRISLVVTALANALNVDTADLPVAVTAPMYMEQKATIDALFALAYGLYTHVAPDPPVMGAPNLVKLLTRDLPSITGGRIAVGSDPVKVADDILAHINDRRAKLGI
notes: full length, 629 residues; homodimer, apparent 118 kDa; [2Fe-2S], [4Fe-4S] and Fe/S/O hybrid cluster, no Ni
**Q.** For B1, which Km is on record?
**A.** 7.6 ± 2.0 mM

**Q.** What about the kcat of the same protein?
**A.** 0.13 s–1
